Data taken from patent US20030109454A1 (ADHEREX TECHNOLOGIES, published 2003).

Each binder was assayed against N-cadherin expressed on transfected 3T3 cells (assay: cell-based or functional assay).

Row | Binder | percent inhibition of neurite outgrowth, peptide at 100 µg/ml | percent inhibition of neurite outgrowth, peptide at 33 µg/ml | percent inhibition of neurite outgrowth, peptide at 250 µg/ml
1 | H-LKIDAVNGQI-OH [H-LKIDAVNGQI-OH] | 104% | – | –
2 | H-LKIDPVNGQI-OH [H-LKIDPVNGQI-OH] | 46% | – | –
3 | Ac-CIDPVNC-NH2 (not fully specified (bridges); printed as N-Ac-CIDPVNC-NH2; also: cyclic peptide, linkage not given here) [N-Ac-CIDPVNC-NH2] | 75.8% | 40.6% | 96.4%
4 | Ac-NLKIDPVNGQI-NH2 [N-Ac-NLKIDPVNGQI-NH2] | 67.8% | 25.6% | 86.8%
5 | H-LKIDPANGQI-OH [H-LKIDPANGQI-OH] | 56.8% | – | –
6 | Ac-WLKIDPVNGQI-NH2 [N-Ac-WLKIDPVNGQI-NH2] | 66.9% | 19.8% | 83.5%
7 | Ac-WLKADAVNGQI-NH2 [N-Ac-WLKADAVNGQI-NH2] | 10.5% | – | 19.7%
8 | Ac-WLKIDAVNGQI-NH2 [N-Ac-WLKIDAVNGQI-NH2] | 12.4% | – | 52.3%
9 | Ac-WLKADPVNGQI-NH2 [N-Ac-WLKADPVNGQI-NH2] | 22.2% | – | 54.7%
10 | H-WLKIDPVNGQI-OH [H-WLKIDPVNGQI-OH] | 76.1% | – | –
11 | Ac-IDPVNGQ-NH2 [N-Ac-IDPVNGQ-NH2] | 56.4% | 34.3% | 85.6%

Target: N-cadherin expressed on transfected 3T3 cells
Test: cell-based or functional assay
Remark: another data set of the same source

Row | Binder | EC50 of inhibition of neurite outgrowth on 3T3 cells expressing N-cadherin
12 | Ac-CINPISC-NH2 (not fully specified (bridges); printed as N-Ac-CINPISC-NH2; also: cyclic peptide, linkage not given here) [N-Ac-CINPISC-NH2] | 38.1 µM
13 | Ac-CINPIC-NH2 (not fully specified (bridges); also: cyclic peptide, linkage not given here) [N-Ac-CINPIC-NH2] | 38.2 µM
14 | Ac-CINPC-NH2 (also: cyclic peptide, ring type not given here) [N-Ac-CINPC-NH2] | 14.3 µM

Target: N-cadherin expressed on transfected 3T3 cells
Test: cell-based or functional assay
Remark: another data set of the same source

Row | Binder | percent inhibition of neurite outgrowth on 3T3 cells expressing N-cadherin, peptide at 100 µg/ml
15 | Ac-INPISGQ-NH2 [N-Ac-INPISGQ-NH2] | 94.5%
16 | Ac-INAISGQ-NH2 [N-Ac-INAISGQ-NH2] | 37.2%
17 | Ac-LNPISGQ-NH2 [N-Ac-LNPISGQ-NH2] | 19.2%
18 | Ac-INPASGQ-NH2 [N-Ac-INPASGQ-NH2] | 7.2%

Target: N-cadherin expressed on transfected 3T3 cells
Test: cell-based or functional assay
Remark: another data set of the same source

Row | Binder | EC50 of inhibition of neurite outgrowth
19 | Ac-WLKIDPVNGQI-NH2 [N-Ac-WLKIDPVNGQI-NH2] | 46 µM
